The text below walks through data of paper PMC6937582, “Human leukocyte antigen (HLA) class II peptide flanking residues tune the immunogenicity of a human tumor-derived epitope” (The Journal of Biological Chemistry, 2019).

The target in experiment [1] is HLA-DR1 (HLA-DRα*0101 and HLA-DRβ1*0101). In words: in vitro competition assay (HLA-DR1 peptide binding). The note with it: chain shown with the change.
The target of experiment [2] is HLA-DR1 (HLA-DRα*0101 and HLA-DRβ1*0101) (human). As to the kind of experiment: ELISA; competitive peptide-binding assay: test peptide 10^-4-10^-10 M against 4.5 nM biotinylated CLIP 99-117 marker peptide for 0.1 μg refolded HLA-DR1-CLIP 105-117; 20 mM MES, 140 mM NaCl, 0.02% NaN3, pH 5, overnight at 37 °C; HLA-DR1 captured on anti-DR L243, bound marker detected with streptavidin-HRP; % competitive inhibition, four-parameter fit.

Consider FARRPPLAELAALALSGSRL [5T4_(111–130) 20-mer peptide N8A], for which the IC50 (in general, the point on the concentration scale where inhibition reaches its midpoint) in experiment [1] was 144 nM.
On the same count and under the same terms, then FARRPPLAELAAANLSGSRL [5T4_(111–130) 20-mer peptide L7A], with 725 nM; and FARRPPLAELAALNLSRSRL [5T4_(111–130) 20-mer peptide G11R], with 255 nM.
In experiment [2], FARRPPLAELAALNLSGSRL [5T4_(111–130) 20-mer peptide] had an IC50 of 176 nM.
